In the domain aggregation screens of Martell et al. (2025):

Test: soluble fraction after stress (log2 fold change); higher = more stays soluble; pooled small domains, quantitative proteomics
Details: stress: 50 degC
Outline: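 Custom libraries of small protein domains were pooled and measured in a high-throughput format, with quantitative proteomics as the read-out. Each library was stressed at 50°C. The value is the log2 fold change in the amount of each protein that stays soluble after stress, used as a measure of aggregation propensity; higher values mean more of the protein stays soluble.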

## HMDDATDLPYQEFRTQVSDGQVKIAQFNNNTGKITFESISGDKFKTSGPLELSSDDERLFLENIEDFKFFT
  soluble fraction (log2): 0.104

## HMEITSSNELKKMISNLINSENKNNPISDSNIVEKLKENDFLVARRTVAKYRKLLGIKNVNQRKE
  soluble fraction (log2): -0.112

## HMRRGPLTPDDFVLDMRVVHPRYGVGRIVALSGSGESRKATVDFGGSIGRMKFVLSQSPLKP
  soluble fraction (log2): -0.414

## HMTPEGAYTVSEIVKVINSFADEYKVPFTMHVSGYKYEEIAQQLGLPIGTVKSRIFFARKRLQELLN
  soluble fraction (log2): -0.952

## HMTEFDVIMKSFGSEKIKVIKEVRAITGLGLAEAKALVEGVPAKIKEQVSKDDAEALKKQLEAVGAEVEL
  soluble fraction (log2): 0.0379

## HMLLRSEDAIELGKSQLEDALAPYKIETLDTGTVQQLLDSLKLNSLESLYQEIGLGNRMSTIIAHRLLGE
  soluble fraction (log2): -0.156

## HMAELNLPVRKIGGEDYYYRQVKKKETIYGISKELGITKEDIIKYNPSVASGLQRNQILYFPVKDFK
  soluble fraction (log2): -0.0957

## HMEEQGLPLVIISDGKVLAQNLTLRSLDRAWLQDQLTQHGHSKPEQVFLLTVDERGAVYYVPKE
  soluble fraction (log2): -0.37

## HMFDSYDIYDEAGNTVNTVKGKLSWGHLLEIYDRFDNHIGTVQERVLTFLPKFLMYINGQEIGEIR
  soluble fraction (log2): -0.0596

## HMDVPVEVFMERIVTALREGRKTTFSELMEGKPERGKVIGTFLALLQLSKGQQIQIHQEQRTGEISIEGGA
  soluble fraction (log2): -0.315

## HMVMLIVMNHTASQADIDKVIEVVSGMGFTAAPIPGGERTAIGVLGNKGYVDDSTIRDLPGVQQAIHVSKP
  soluble fraction (log2): 0.0615

## HMKADTSPEAQKKIIAAFEPYSVNKDQIEKLIQRRIDSITPAQVIRLRKILASLKDGMSSPEDWFE
  soluble fraction (log2): 0.0361

## HMHGESIPIPNILHKRYADAEQIVNNLRLEIEVTDTGYVRSLPPGAILEQTPGPGERVKSGHIIYVTINAA
  soluble fraction (log2): -0.291

## HMRVEEVGYGEFLQMAEERDLAEVQVTDTEIIFSDKDTPPNYYKTGRMDDPFLVDRLYSAGIRDFGE
  soluble fraction (log2): -0.298

## HMKVQLGMNTREVRGIMGKPFSEDTFVEGEKRVDVLHYKEAVRVKTQGFILTTSLRFENDSLTAI
  soluble fraction (log2): -1.74

## HMRLADHVVEKLLALVQDRGLQPGQKLPAERQLAEELGVSRTSVREAIQKLTSQGVLSARRGDGTYLQS
  soluble fraction (log2): 0.0556

## HMNSHQNELDNALTEAHTASRRLLEGTDEYLDLSSQPAYIRRLQHLLAQKYNLGSLSSGVEPNRHIRLLQ
  soluble fraction (log2): -0.143

## HMGGLIEPLSARELEVLELMSLGKTNQEIARDLVVASGTIKAHAASIYRKLDAANRTEAVTHARELGIL
  soluble fraction (log2): -0.0084

## HMIDLGKSRTWHSENGRAIEARVINISEEQQTVEMQRVDGLKFELSWNQLSKADQTLLAEAAKKTALVA
  soluble fraction (log2): 0.0711

## HMIMEVDYGTFMKMTEENAIGRVQMDSTEIIFTDKENTQVYSTGIMYDPDLTQRLYDAGAVFA
  soluble fraction (log2): -0.986

## HMEDVPYMIKLPSHHYLTKMVDGSTGWSLVQNSNTVVGSSKEELLKQYPEYEDFIVQEPLNV
  soluble fraction (log2): 0.101

## HMGTITKRTNPSGAVVWRAQIRINKADMPTYSESKTFSKKSLATEWLKRREAEIEANPDLIL
  soluble fraction (log2): -0.348

## HMKSDELTKRRRLQIIEAAERSFRKRGFHATTLREIAAEFGMSVGHIYNYFSGKDAILEALIHQKIDD
  soluble fraction (log2): -0.82

## HMNSVYTPDPKELAKAIKIVTAAREAEQKGQGVIAVDGRMVDAPVVSQALRILELARLAGMEVSE
  soluble fraction (log2): 0.0244

## HMLPKTVTLIDPVSGVAKTVTWVPALTLYSARRKAGLNRVPNTATIDRGGRELTGKRGSTLQPGDVVRW
  soluble fraction (log2): -0.425

## HMLEQISDPEVLSKLADEVLSQQEKMVMDYRKGKTAAFQGLMGQMMKKTKGKGNPAKIQEILAQKL
  soluble fraction (log2): 0.193

## HMEDLMEERKEHLLSVMKDPAYVPMKQKELAMLLNVPKGLREELNQVLDALVAEGSVVMSKRGKYTIPQ
  soluble fraction (log2): -0.0312

## HMSHFSERLKSLRQQSSITQAKLADDLNVTKSLISMYESGQRLPSFEMLETIADYFNVPLSSLV
  soluble fraction (log2): -0.089

## HMKKMEEEFALFNAWVDRRLGIPLAAYKENQMQRRILTIMENSGAKTLREYQQLIEGDEGVRAAFLAHIT
  soluble fraction (log2): -1.1

## HMSHGSIYFSGKTGLKGSVDINGTVNSINKKIFLKPGNYNFLIKADGYKNLKGSFQISKGDKKFVELVLIP
  soluble fraction (log2): -1.61

## HMVMSVGENIAYFRKKLGLTQEMLSERIGVTAQAVSKWENGVTNPDISLLPRISEALGIGIGDLFD
  soluble fraction (log2): -0.299

## HMDFGPDSAAPLADGSAPEGFDVKGNADSMLYHEPDGRWYDATVAEVWFRTAEAAQAAGFTKAGS
  soluble fraction (log2): -0.0829

## HMNVLGQTAIVRSLRLDATFGEVLLADGGAGLIFKARTHGDETFKKGDRVVLLEYLKDQHAYRVISETDFL
  soluble fraction (log2): -1.94

## HMASDYYTTTANLNLRSGAGTTYGSLIIIEKGDTVKLLENVNDHWVKIQYDDKIGYVAMSYLLPIE
  soluble fraction (log2): -0.484

## HMREVSPEDLALMRRIDAWHLEHPFAGARLLRDLLRPEGFQAGRRHIGTLMARMGIEALYRK
  soluble fraction (log2): -0.458

## HMDEEEKGEVEVPNLIGLTRKEAKKTLEEEGLLIETKESLKTNLDDEYEKIKSQLPKAGIKIKQGSTVYVD
  soluble fraction (log2): 0.0917

## HMHKYEYESLNHVNVGSNLKYISTHFGQPKLIKKSKYHENLNFAYYLEKKFILTLILEGDRVNAYTITG
  soluble fraction (log2): 0.0565

## HMNNLPDFIKQLRKENNLTQEYVASEIGVSRPTYEQIEKGKRELTISEAEKLAKIFNIPLENFLQGKKGV
  soluble fraction (log2): 0.184

## HMKGHQASTTWISERVKDIIKEDPTLGARKLQKRLEIHYNIELSYFKVWSGKNLQWMIFMVL
  soluble fraction (log2): 0.022

## HMGKQIKEIVEEYYDSTSKNSPVGGSWKTSLDGVDLTSPNITIWTRTKIKYVDGSESIVTPQSL
  soluble fraction (log2): -0.0357

## HMQTYTYYIAKNDISIGQKITPDMLIEKQVNLGDSKDRYLSREQLETGKYIAVRQIPAGELISSASANE
  soluble fraction (log2): 0.157

## HMDITTIIADVPGPKTQIKVDIKNTSLHIFGGMNFKKEIDIGDNKEIINIKYINGTLTVKLKT
  soluble fraction (log2): 0.089

## HMTLHEAMEKLFRQVGRPMTTKEIAEKLNENKWYQKADGSPLTPYQIYGRAKNYPALFHREGSIIYLKGS
  soluble fraction (log2): -0.41

## HMVDGAHKQQAAVQALTPALKVLAAAPEGKKGQAIQALRAVLKQHGRWLDDATAQQVHEQLLAAGDAQGWQ
  soluble fraction (log2): 0.297

## HMAVLEGPAGKLGIVRFEANRSFTGMGHERFSSADQAFGTKPAAVVASRLFATGQVAGVHVYGNIITVELA
  soluble fraction (log2): 0.528

## HMPVTKSARQSRIGELIAREPVRSQSELAARLADDGIVVSQGTLSKDLLELGAVRVRTSSGELAYALL
  soluble fraction (log2): -0.18

## HMLTRQNFHGIKLPTIHEYIDLLNSRVNANIDKTNNWQSSVSHLRTYLNSHNINAVSKESINNYIDERLN
  soluble fraction (log2): -0.572

## HMLSADLLDKIQRIDSLEQQGKYAQAEKEARALLSDPSITPSERASVQNILSSIARKKAAQAQ
  soluble fraction (log2): 0.11

## HMHAQDTLMTRAGETRTVKILEIGLEEIKYRIWGLDDSPVIVIDKIDVKQIVFSNGEKMTIVQ
  soluble fraction (log2): -1.44

## HMLHEFSGVVVSILADTGPSTLKQLHRSLISSDVKMDEKELMQILDEALSSGSVTSHRKGRYLYYSANK
  soluble fraction (log2): -0.58

## HMLPRLVLSPGTEVLATVMGKYENGMSLVKISSHLFAMDLPSRVQVGDSLRMTFLHQDARPTFALA
  soluble fraction (log2): -0.779

## HMSKPVVWIVGDSTVSAFTDNYYYPRYGWGTQIDKYLDGTFEVKNIALSGRSSTSYTADKEYGELIAG
  soluble fraction (log2): 0.0416

## HMDPTVEENKLNPRDLLIIQRVKEGRTNKEIAEELNVAEITVKKQLSSLYQRYKVHNRNQLLLALD
  soluble fraction (log2): 0.117

## HMQMPLTMATMGEVNKIVKVGGNEETRRFLANLGFVAGAEVVVLSKIGGNVIVNVKDSRVAVNEDMARHIM
  soluble fraction (log2): -0.997

## HMSKSIGEALKEERRSLGLTQEQFIKGIISESFYSKVERGKNEIVAVDLLKILAANNISEEEFLSKLN
  soluble fraction (log2): -0.58

## HMSSVTGMERFLSSGAVKGIGKTMAARIVEHFGTETMTVLESFPERLAEVPGIGAKKAEAIGQSYSEISD
  soluble fraction (log2): 0.174

## HMILNPADEEKMNLINFELQQRGLEINDKEMQYIFTHHSRDLNSLLNLAEKLDEISHQEKKSISINLIKKI
  soluble fraction (log2): -0.0218

## HMEEEEITIHIIGEVKYPGIVILKTGQRIIDAIDAAGGETEEADLNKINLAQLLSDGDKIYVPSINDN
  soluble fraction (log2): -0.0785

## HMAIADQPISAEHFDKLRQVLNSNTQETIASAKQHWASISNNAEFTNENVTRTLLEEMLAFIKSAS
  soluble fraction (log2): 0.307

## HMIIIMKMGADESQVQETIKRIKDLGFNTHLSKGENRTIIGVIGDVSSIDESDVERLRATPYIAEVVRVS
  soluble fraction (log2): 0.0267

## HMRRNLSGEDTIVNRMAQWQYTQEQKNELHKMMDAGMPQEDILSVFYPEIKAEEMHRFLLAFQTAHNSG
  soluble fraction (log2): -0.162

## HMKSVTAPLPGTVTQILVKVGDAVKAGDTVLMLEAMKMENSITAEAAGTVKAIRVEKGAQVQGGDVLIEM
  soluble fraction (log2): 0.156

## HMEVDWLEVEKVIVSSSYSWMENSPKVKLLQEYIGVTADGIYGLGTWGAHRTHAVDLGFINLSYPIP
  soluble fraction (log2): -0.127

## HMKVDLSEEEKTILELLKKESPQELETIKAASTLSNKKWDKAIKGLRKHNLAKVNKTDDGLFVELE
  soluble fraction (log2): 0.257

## HMNKYYQQLLQADPTGFIDPFKDLGTYDSRLNTFKEPVSELLNPFSGRPYSKIWQKRIETMREIFISYIKS
  soluble fraction (log2): -2.86

## HMEREQNILQGREVVERELRRLGLAEAYTVSDIAKALKFDDEEQFLAKVGFGDIQSRQISGAIALMEKN
  soluble fraction (log2): 0.0472

## HMIQIGEQIRYYRTKIGISQEALALMADINPAYIGQIERGIKSPTVNTIKKIANAMGINLHTLFT
  soluble fraction (log2): -2.91

## HMKAERLLALLTILLSGKRVSARWLSEELEVSERTVYRDVEALSEAGFPVYATTGRDGGFSLIDGF
  soluble fraction (log2): -2.08

## HMFPTLSPEEQRIVDQLAKENDLQANVIALRTALTIPQISALLFSLEMKGMVRLYAGGTYHLI
  soluble fraction (log2): -2.81

## HMGEELIEIQNLRNKERREAEAILKNLDLVPVIQEQFDDTVPINRVITTDPGPDSTVKKGTTVMIYVSKGP
  soluble fraction (log2): 0.253

## HMEETAFEKLSPLQKLRALGKPLTMINMRDGSQIAGSVQRSDDKFLYLDTGDGIAKLPVEEILRRTPM
  soluble fraction (log2): 0.25

## HMIKEVEYSQFLQMTDQGEVGKVEINEQENSILFTDKAEKNIYKTGMVEDAELSMRLYEAGIPFSGQI
  soluble fraction (log2): -0.0245

## HMEVTLEEKLSYVEEYAKVHSHFSFRDLLKKQASKTQIVVTFLAILELMKTGKIQITQEHIFDDIVITAK
  soluble fraction (log2): -0.0755

## HMNKRYKVQVTTDNLKIRKGAGTSYPVVGHITDKGTYTIVETSGKWGKLLSGAGWIYLSYTKK
  soluble fraction (log2): -1.76

## HMQKNFYQILGVDSKASPATINAAYERAKSRVIQSGLEDPDTMALLRDAWETLADPGDRAAYDESLAT
  soluble fraction (log2): 0.0751
